In US20260242478A1 (published 2026):
Where no end group is shown, it is not given here.

Columns and labels:
[1] = target: T1, Anti-CD28 Fab (SEQ ID NOs: 696, 697); assay: phage binding ELISA; clonal phage on plate-captured biotinylated anti-CD28 Fab
T1 construct: In the phage ELISA the Fab was biotinylated and captured on neutravidin coated plates
T1 sequence (VH, as listed by the source, chain 1 of 2): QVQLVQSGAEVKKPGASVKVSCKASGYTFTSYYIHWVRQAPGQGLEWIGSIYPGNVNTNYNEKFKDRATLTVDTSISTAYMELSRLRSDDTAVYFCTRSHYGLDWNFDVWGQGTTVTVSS
T1 sequence (VL, as listed by the source, chain 2 of 2): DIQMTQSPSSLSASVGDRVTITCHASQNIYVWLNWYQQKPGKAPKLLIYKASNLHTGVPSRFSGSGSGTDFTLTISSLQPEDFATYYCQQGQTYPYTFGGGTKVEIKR
Procedure: (§1) Clonal phage were harvested as crude supematants and screened via standard ELISAs. […] Prior to the addition of clonal phage, wells were incubated with blocking buffer and CD28 antigen or blocking buffer alone. Without washing or aspirating, clonal phage supematants were then added to the wells and incubated for a short time. Wells were then washed followed by detection of bound phage using a horse radish conjugated anti-M13 antibody.

[2] = target: T1, Anti-CD28 Fab (SEQ ID NOs: 696, 697); assay: phage binding ELISA; clonal phage on plate-captured anti-CD28 Fab pre-incubated with CD28 antigen (competitor)
Procedure: (§2) Clonal phage were harvested as crude supematants and screened via standard ELISAs. […] Prior to the addition of clonal phage, wells were incubated with blocking buffer and CD28 antigen or blocking buffer alone. Without washing or aspirating, clonal phage supematants were then added to the wells and incubated for a short time. Wells were then washed followed by detection of bound phage using a horse radish conjugated anti-M13 antibody. Clonal phage of interest were then sent for sequence analysis.

[3] = target: Anti-CD28 Fab (SEQ ID NOs: 696, 697); assay: phage binding ELISA; Fab-coated wells pre-incubated with CD28 antigen as competitor, anti-M13 HRP detection;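 note: crude clonal phage supernatants added without washing after the CD28 pre-incubation, with wells given blocking buffer only (no CD28) as the reference, bound phage read after washing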
Target sequence in this assay (VH, as listed by the source, chain 1 of 2): as the sequence (VH, as listed by the source, chain 1 of 2) above
Target sequence in this assay (VL, as listed by the source, chain 2 of 2): as the sequence (VL, as listed by the source, chain 2 of 2) above
Procedure: as §2

[4] = target: Anti-CD28 Fab (SEQ ID NOs: 696, 697); assay: phage binding ELISA; biotinylated anti-CD28 Fab on neutravidin plate, clonal phage supernatant, anti-M13 HRP detection;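 note: wells pretreated with blocking buffer, either plus or minus CD28 antigen, then given crude phage supernatant briefly without washing in between, then washed before anti-M13 HRP readout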
Target sequence in this assay (VH, as listed by the source, chain 1 of 2): as the sequence (VH, as listed by the source, chain 1 of 2) above
Target sequence in this assay (VL, as listed by the source, chain 2 of 2): as the sequence (VL, as listed by the source, chain 2 of 2) above
Procedure: as §1

[5] = target: T2, Anti-CD28 Fab (SEQ ID NOs: 696, 697) (biotinylated (site not given)); assay: phage binding ELISA on captured anti-CD28 Fab; competitor: CD28 antigen added to the wells before the phage
[6] = target: T2, Anti-CD28 Fab (SEQ ID NOs: 696, 697); assay: phage binding ELISA; biotinylated anti-CD28 Fab on neutravidin plate, clonal phage detected with anti-M13-HRP;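 note: crude clonal phage supernatants added briefly to wells preincubated in blocking buffer with or without CD28 antigen, then washed before detection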
Procedure: as §2

[7] = target: Anti-CD28 Fab (SEQ ID NOs: 696, 697); assay: phage binding ELISA; Fab-coated wells pre-incubated with CD28 antigen as competitor, anti-M13 HRP detection; remark: listed apart in the source;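 note: crude clonal phage supernatants added without washing after the CD28 pre-incubation, with wells given blocking buffer only (no CD28) as the reference, bound phage read after washing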
Target sequence in this assay (VH, as listed by the source, chain 1 of 2): as the sequence (VH, as listed by the source, chain 1 of 2) above
Target sequence in this assay (VL, as listed by the source, chain 2 of 2): as the sequence (VL, as listed by the source, chain 2 of 2) above
Procedure: as §2

[8] = target: Anti-CD28 Fab (SEQ ID NOs: 696, 697); assay: phage binding ELISA; biotinylated anti-CD28 Fab on neutravidin plate, clonal phage supernatant, anti-M13 HRP detection; remark: listed apart in the source;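 note: wells pretreated with blocking buffer, either plus or minus CD28 antigen, then given crude phage supernatant briefly without washing in between, then washed before anti-M13 HRP readout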
Target sequence in this assay (VH, as listed by the source, chain 1 of 2): as the sequence (VH, as listed by the source, chain 1 of 2) above
Target sequence in this assay (VL, as listed by the source, chain 2 of 2): as the sequence (VL, as listed by the source, chain 2 of 2) above
Procedure: as §1

T2 sequence (VH, as listed by the source, chain 1 of 2): as the sequence (VH, as listed by the source, chain 1 of 2) above
T2 sequence (VL, as listed by the source, chain 2 of 2): as the sequence (VL, as listed by the source, chain 2 of 2) above

Row | Binder | Anti-CD28 Fab (SEQ ID NOs: 696, 697) signal [1] | Anti-CD28 Fab signal in the presence of CD28 [2] | Anti-CD28 Fab signal in the presence of CD28 [5] | Anti-CD28 Fab (SEQ ID NOs: 696, 697) signal [6] | further results
1 | LCEEFADYPWPMCL [Phage-1412 (Peptide-92 library clone)] | 2.01 | 0.06 |  |  | 
2 | MCSAGANYPWPWCL [Phage-1426] |  |  |  |  | Anti-CD28 Fab signal in the presence of CD28 [3]: 0.08; Anti-CD28 Fab (SEQ ID NOs: 696, 697) signal [4]: 1.97
3 | TCAAGASYAWPWCL [Phage-1407 (Peptide-92 library clone)] | 2.03 | 0.08 |  |  | 
4 | TCAAGAMWHWPVCL [Phage-1409 (Peptide-92 library clone)] | 2.03 | 0.09 |  |  | 
5 | TCSAGATYVWPQCF [Phage-1403 (Peptide-92 library clone)] | 2.05 | 0.07 |  |  | 
6 | TCSEGATYTWPWCF [Phage-1401] |  |  | 0.06 | 2.05 | 
7 | LCAEFFNYPWPLCL [Phage-1422] |  |  |  |  | Anti-CD28 Fab signal in the presence of CD28 [3]: 0.06; Anti-CD28 Fab (SEQ ID NOs: 696, 697) signal [4]: 1.98
8 | LCAAGATYPWPFCL [Phage-1366 peptide (Peptide-92 library sequence, SEQ ID NO: 1662)] |  |  |  |  | Anti-CD28 Fab signal in the presence of CD28 [7]: 0.07; Anti-CD28 Fab (SEQ ID NOs: 696, 697) signal [8]: 2.28
9 | TCSAGATWTWPQCL [Phage-1391] |  |  | 0.08 | 2.14 | 
10 | TCSAGATYEWPWCM [Phage-1425] |  |  |  |  | Anti-CD28 Fab signal in the presence of CD28 [3]: 0.07; Anti-CD28 Fab (SEQ ID NOs: 696, 697) signal [4]: 1.97
11 | QCAAGASYPWPMCL [Phage-1398] |  |  | 0.08 | 2.08 | 
12 | RCAAGASYPWPPCL [Phage-1372 peptide (Peptide-92 library sequence, SEQ ID NO: 1668)] |  |  |  |  | Anti-CD28 Fab signal in the presence of CD28 [7]: 0.05; Anti-CD28 Fab (SEQ ID NOs: 696, 697) signal [8]: 2.25
13 | SCAAVFSYSWPMCF [Phage-1420] |  |  |  |  | Anti-CD28 Fab signal in the presence of CD28 [3]: 0.06; Anti-CD28 Fab (SEQ ID NOs: 696, 697) signal [4]: 1.99
14 | SCAAGATYSWPMCL [Phage-1421] |  |  |  |  | Anti-CD28 Fab signal in the presence of CD28 [3]: 0.09; Anti-CD28 Fab (SEQ ID NOs: 696, 697) signal [4]: 1.99
15 | LCAAGATYAWPLCL [Phage-1392] |  |  | 0.07 | 2.13 | 
16 | TCAAGATYSWPWCF [Phage-1418] |  |  |  |  | Anti-CD28 Fab signal in the presence of CD28 [3]: 0.07; Anti-CD28 Fab (SEQ ID NOs: 696, 697) signal [4]: 1.99
17 | TCAAGAMYTWPLCF [Phage-1390] |  |  | 0.09 | 2.14 | 
18 | MCAAGANYPWPQCL (cysteine pairing not given here; also: fused to phage pIII protein) [Phage-1367 peptide (Peptide-92 library sequence, SEQ ID NO: 1663)] |  |  |  |  | Anti-CD28 Fab signal in the presence of CD28 [7]: 0.08; Anti-CD28 Fab (SEQ ID NOs: 696, 697) signal [8]: 2.28
19 | LCAAGFKYPWPLCL [Phage-1411 (Peptide-92 library clone)] | 2.02 | 0.07 |  |  | 
20 | YCAAGATYPWPLCL [Phage-1399] |  |  | 0.08 | 2.08 | 
21 | LCAAGASYPWPTCL [Phage-1414 (Peptide-92 library clone)] | 2 | 0.1 |  |  | 
22 | SCSAGAMYTWPTCL [Phage-1397] |  |  | 0.06 | 2.09 | 
23 | MCAAGATYPWPLCL (cysteine pairing not given here; also: fused to phage pIII protein) [Phage-1417] |  |  |  |  | Anti-CD28 Fab signal in the presence of CD28 [3]: 0.07; Anti-CD28 Fab (SEQ ID NOs: 696, 697) signal [4]: 1.99

Row | Binder | Anti-CD28 Fab (SEQ ID NOs: 696, 697) signal [1] | Anti-CD28 Fab signal in the presence of CD28 [2] | Anti-CD28 Fab signal in the presence of CD28 [5] | Anti-CD28 Fab (SEQ ID NOs: 696, 697) signal [6] | further results
24 | HCAAGAHYPWPACL [Phage-1415 (Peptide-92 library clone)] | 2 | 0.12 |  |  | 
25 | LCSAGAMYPWPTCL [Phage-1369 peptide (Peptide-92 library sequence, SEQ ID NO: 1665)] |  |  |  |  | Anti-CD28 Fab signal in the presence of CD28 [7]: 0.07; Anti-CD28 Fab (SEQ ID NOs: 696, 697) signal [8]: 2.25
26 | TCAAGANYPWPYCL [Phage-1416 (Peptide-92 library clone)] | 1.99 | 0.14 |  |  | 
27 | TCSAGASWAWPWCF [Phage-1408 (Peptide-92 library clone)] | 2.03 | 0.08 |  |  | 
28 | TCAAGATYAWPECL [Phage-1400] |  |  | 0.11 | 2.08 | 
29 | TCAAGAHYTWPECF [Phage-1419] |  |  |  |  | Anti-CD28 Fab signal in the presence of CD28 [3]: 0.07; Anti-CD28 Fab (SEQ ID NOs: 696, 697) signal [4]: 1.99
30 | TCAAVFSYGWPECF [Phage-1396] |  |  | 0.07 | 2.09 | 
31 | TCSAGAYYTWPYCF [Phage-1395] |  |  | 0.08 | 2.09 | 
32 | TCSAGATWSWPMCL [Phage-1368 peptide (Peptide-92 library sequence, SEQ ID NO: 1664)] |  |  |  |  | Anti-CD28 Fab signal in the presence of CD28 [7]: 0.09; Anti-CD28 Fab (SEQ ID NOs: 696, 697) signal [8]: 2.26
33 | TCKAGATYLWPFCL [Phage-1373 peptide (Peptide-92 library sequence, SEQ ID NO: 1669)] |  |  |  |  | Anti-CD28 Fab signal in the presence of CD28 [7]: 0.08; Anti-CD28 Fab (SEQ ID NOs: 696, 697) signal [8]: 2.23
34 | MCAEFFNYPWPLCL (cysteine pairing not given here; also: fused to phage pIII protein) [Phage-1393] |  |  | 0.07 | 2.11 | 
35 | TCAAGAHYLWPWCM [Phage-1402] |  |  | 0.08 | 2.05 | 
36 | TCAAGATYKWPACL [Phage-1405 (Peptide-92 library clone)] | 2.05 | 0.09 |  |  | 
37 | TCAAGATYPWPSCL [Phage-1371 peptide (Peptide-92 library sequence, SEQ ID NO: 1667)] |  |  |  |  | Anti-CD28 Fab signal in the presence of CD28 [7]: 0.06; Anti-CD28 Fab (SEQ ID NOs: 696, 697) signal [8]: 2.25
38 | TCAAGATYSWPMCF [Phage-1413 (Peptide-92 library clone)] | 2 | 0.07 |  |  | 
39 | GCAAGATYPWPSCL [Phage-1404 (Peptide-92 library clone)] | 2.05 | 0.06 |  |  | 
40 | MCSAGAMYPWPTCL [Phage-1406 (Peptide-92 library clone)] | 2.04 | 0.08 |  |  | 
41 | TCAAGAHYSWPACF [Phage-1370 peptide (Peptide-92 library sequence, SEQ ID NO: 1666)] |  |  |  |  | Anti-CD28 Fab signal in the presence of CD28 [7]: 0.07; Anti-CD28 Fab (SEQ ID NOs: 696, 697) signal [8]: 2.25
42 | QCSAGAAWPWPFCL [Phage-1423] |  |  |  |  | Anti-CD28 Fab signal in the presence of CD28 [3]: 0.08; Anti-CD28 Fab (SEQ ID NOs: 696, 697) signal [4]: 1.97
43 | WCKPGAPYKWPPCF [Phage-1389] |  |  | 0.07 | 2.14 | 
44 | MCAAGAHYTWPTCL (cysteine pairing not given here; also: fused to phage pIII protein) [Phage-1424] |  |  |  |  | Anti-CD28 Fab signal in the presence of CD28 [3]: 0.07; Anti-CD28 Fab (SEQ ID NOs: 696, 697) signal [4]: 1.97
45 | TCAAGATYEWPACL [Phage-1394] |  |  | 0.07 | 2.09 | 
46 | TCSAGFHYEWPRCL [Phage-1410 (Peptide-92 library clone)] | 2.02 | 0.05 |  |  | 
